Source: patent publication US6319685A (Unigene Laboratories, Inc., priority 1987, dated 2001)
Where two headings read alike, the source gives them in different places. No end group written: not given here.

T1: alpha-amidating enzyme (Rattus norvegicus, UniProt P14925)
T1 sequence (P14925 36-976): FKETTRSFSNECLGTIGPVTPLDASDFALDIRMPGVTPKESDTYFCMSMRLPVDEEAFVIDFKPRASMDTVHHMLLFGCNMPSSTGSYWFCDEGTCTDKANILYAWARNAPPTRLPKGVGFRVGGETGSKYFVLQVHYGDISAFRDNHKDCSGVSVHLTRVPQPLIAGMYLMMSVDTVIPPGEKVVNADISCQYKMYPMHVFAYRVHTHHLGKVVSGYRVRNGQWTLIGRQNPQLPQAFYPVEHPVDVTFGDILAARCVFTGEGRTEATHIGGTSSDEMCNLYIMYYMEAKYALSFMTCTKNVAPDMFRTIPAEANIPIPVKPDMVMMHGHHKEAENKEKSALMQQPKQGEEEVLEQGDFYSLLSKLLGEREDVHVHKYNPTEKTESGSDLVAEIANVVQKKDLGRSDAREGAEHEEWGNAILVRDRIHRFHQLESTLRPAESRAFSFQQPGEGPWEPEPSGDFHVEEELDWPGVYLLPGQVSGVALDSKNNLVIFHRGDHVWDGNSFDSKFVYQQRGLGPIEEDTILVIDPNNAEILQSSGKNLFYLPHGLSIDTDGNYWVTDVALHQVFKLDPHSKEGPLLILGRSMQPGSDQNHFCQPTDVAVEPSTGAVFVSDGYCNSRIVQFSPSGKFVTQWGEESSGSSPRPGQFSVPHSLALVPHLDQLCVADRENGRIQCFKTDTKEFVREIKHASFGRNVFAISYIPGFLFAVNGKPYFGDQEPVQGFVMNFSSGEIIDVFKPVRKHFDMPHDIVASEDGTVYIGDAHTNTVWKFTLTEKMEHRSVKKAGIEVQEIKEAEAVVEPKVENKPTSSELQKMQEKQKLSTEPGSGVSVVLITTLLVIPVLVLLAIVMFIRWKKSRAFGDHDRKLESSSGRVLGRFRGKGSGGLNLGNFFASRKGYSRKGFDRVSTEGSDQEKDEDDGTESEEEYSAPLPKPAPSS


Columns and labels:
[1] = biological activity of amidated recombinant hormones versus synthetic hormone
[2] = iso-electric point of alpha-amidating enzyme; assay type: physicochemical
[3] = biological target: T1, alpha-amidating enzyme; assay: co-factor requirement of alpha-amidating enzyme for maximal activity; assay type: biochemical
[4] = specific alpha-amidating activity, conversion of Dansyl-D-Tyr-Val-Gly to Dansyl-D-Tyr-Val-CONH2; assay type: biochemical; details: homogeneous peak III enzyme, rat MTC tumor
Description: These and other objects will become apparent from a thorough reading of the present disclosure. […] All specific activity units set forth herein are based upon the conversion of Dansyl-D-Try-Val-Gly-COOH to Dansyl-D-Tyr-Val-CONH2. One mU is defined as the amount of activity needed to convert one nanomole (nmole) of Dansyl-D-Tyr-Val-Gly-COOH to one nmole of Dansyl-D-Tyr-Val-CONH2 per minute at 37° C. and pH 7.0 in the presence of ascorbate ions at a concentration of 3 mM (based on total reaction mixture including enzyme, substrate, co-factors, etc.), molecular oxygen in a molar excess over substrate and a concentration of cupric ions effective to maximize activity (usually about 2 μM depending on the state of purity of the enzyme).
Each purification step can be monitored for both protein content and the level of alpha-amidation activity. This information is used to calculate the specific activity of the enzyme which serves as an indicator of the relative purity of the enzyme.
Sephacryl S-300 (Pharmacia) was equilibrated in 50 mM Tris HCl pH 7.0 and poured into a K 50/100 column (Pharmacia) according to the manufacturer's instructions. The bed volume of the column was approximately 1.3 liters. The Sample was loaded onto the column in a volume representing approximately 3 percent of the bed volume of the column. Proteins were eluted from the column in 50 mM Tris HCl pH 7.0 at a flow rate of approximately 2 ml per minute.
The reaction mixture for the conversion of the monodansyl substrate contained:
The samples were prepared in duplicate and incubated at 37° C. for 10, 20 and 30 minutes time periods. The enzymatic reaction was halted by the addition of 10 ul 500 mM EDTA.

[5] = pH optimum of alpha-amidating enzyme; assay type: biochemical; details: rat MTC tumor enzyme, N dansyl Tyr-Val-Gly substrate
Description: 2. The optimum pH for the activity of the enzyme was determined to be pH 5.0-5.5 using N dansyl Tyr-Val-Gly as the substrate (FIG. XVI). However, due to the enhanced stability of the enzyme at neutral pH, it may be beneficial to carry out the amidation reaction at such pH.

[6] = cited from earlier work

| pH optimum [5] | Molecule | biological activity (and characterization) compared with synthetic hormone [1] | iso-electric point (pI) [2] | other results |
| --- | --- | --- | --- | --- |
|  | recombinant human calcitonin: purified alpha-amidated recombinant human calcitonin (CGNLSTCMLGTYTQDFNKFHTFPQTAIGVGAP-NH2; ends and bridges not checked; UniProt P01258 85-116, looked up) | indistinguishable from synthetic human calcitonin |  |  |
|  | recombinant hGHRF: recombinant, alpha-amidated human growth hormone releasing factor (YADAIFTNSYRKVLGQLSARKLLQDIMSRQQGESNQERGARARL-NH2; UniProt P01286 32-75, looked up) | indistinguishable from synthetic hGHRF |  |  |
| 5.0-5.5 | peak III enzyme (MTC tumor): MTC tumor alpha-amidating enzyme peak eluting at 220 mM NaCl from Mono Q pH 6.0, purified to homogeneity (protein, UniProt P14925 36-976, looked up, Mono Q peak III form) Peptidylglycine …: FKETTRSFSNECLGTIGPVTPLDASDFALDIRMPGVTPKESDTYFCMSMRLPVDEEAFVIDFKPRASMDTVHHMLLFGCNMPSSTGSYWFCDEGTCTDKANILYAWARNAPPTRLPKGVGFRVGGETGSKYFVLQVHYGDISAFRDNHKDCSGVSVHLTRVPQPLIAGMYLMMSVDTVIPPGEKVVNADISCQYKMYPMHVFAYRVHTHHLGKVVSGYRVRNGQWTLIGRQNPQLPQAFYPVEHPVDVTFGDILAARCVFTGEGRTEATHIGGTSSDEMCNLYIMYYMEAKYALSFMTCTKNVAPDMFRTIPAEANIPIPVKPDMVMMHGHHKEAENKEKSALMQQPKQGEEEVLEQGDFYSLLSKLLGEREDVHVHKYNPTEKTESGSDLVAEIANVVQKKDLGRSDAREGAEHEEWGNAILVRDRIHRFHQLESTLRPAESRAFSFQQPGEGPWEPEPSGDFHVEEELDWPGVYLLPGQVSGVALDSKNNLVIFHRGDHVWDGNSFDSKFVYQQRGLGPIEEDTILVIDPNNAEILQSSGKNLFYLPHGLSIDTDGNYWVTDVALHQVFKLDPHSKEGPLLILGRSMQPGSDQNHFCQPTDVAVEPSTGAVFVSDGYCNSRIVQFSPSGKFVTQWGEESSGSSPRPGQFSVPHSLALVPHLDQLCVADRENGRIQCFKTDTKEFVREIKHASFGRNVFAISYIPGFLFAVNGKPYFGDQEPVQGFVMNFSSGEIIDVFKPVRKHFDMPHDIVASEDGTVYIGDAHTNTVWKFTLTEKMEHRSVKKAGIEVQEIKEAEAVVEPKVENKPTSSELQKMQEKQKLSTEPGSGVSVVLITTLLVIPVLVLLAIVMFIRWKKSRAFGDHDRKLESSSGRVLGRFRGKGSGGLNLGNFFASRKGYSRKGFDRVSTEGSDQEKDEDDGTESEEEYSAPLPKPAPSS |  | 4.8 | Cu++ required for maximal activity [3]: ≤ 0.1 µM; specific activity [4]: 2,100 mU/mg protein |
| 5.0-5.5 | peak II enzyme (MTC tumor): MTC tumor alpha-amidating enzyme peak eluting at 200 mM NaCl from Mono Q pH 6.0 (protein, UniProt P14925 36-976, looked up, Mono Q peak II form) Peptidylglycine …: FKETTRSFSNECLGTIGPVTPLDASDFALDIRMPGVTPKESDTYFCMSMRLPVDEEAFVIDFKPRASMDTVHHMLLFGCNMPSSTGSYWFCDEGTCTDKANILYAWARNAPPTRLPKGVGFRVGGETGSKYFVLQVHYGDISAFRDNHKDCSGVSVHLTRVPQPLIAGMYLMMSVDTVIPPGEKVVNADISCQYKMYPMHVFAYRVHTHHLGKVVSGYRVRNGQWTLIGRQNPQLPQAFYPVEHPVDVTFGDILAARCVFTGEGRTEATHIGGTSSDEMCNLYIMYYMEAKYALSFMTCTKNVAPDMFRTIPAEANIPIPVKPDMVMMHGHHKEAENKEKSALMQQPKQGEEEVLEQGDFYSLLSKLLGEREDVHVHKYNPTEKTESGSDLVAEIANVVQKKDLGRSDAREGAEHEEWGNAILVRDRIHRFHQLESTLRPAESRAFSFQQPGEGPWEPEPSGDFHVEEELDWPGVYLLPGQVSGVALDSKNNLVIFHRGDHVWDGNSFDSKFVYQQRGLGPIEEDTILVIDPNNAEILQSSGKNLFYLPHGLSIDTDGNYWVTDVALHQVFKLDPHSKEGPLLILGRSMQPGSDQNHFCQPTDVAVEPSTGAVFVSDGYCNSRIVQFSPSGKFVTQWGEESSGSSPRPGQFSVPHSLALVPHLDQLCVADRENGRIQCFKTDTKEFVREIKHASFGRNVFAISYIPGFLFAVNGKPYFGDQEPVQGFVMNFSSGEIIDVFKPVRKHFDMPHDIVASEDGTVYIGDAHTNTVWKFTLTEKMEHRSVKKAGIEVQEIKEAEAVVEPKVENKPTSSELQKMQEKQKLSTEPGSGVSVVLITTLLVIPVLVLLAIVMFIRWKKSRAFGDHDRKLESSSGRVLGRFRGKGSGGLNLGNFFASRKGYSRKGFDRVSTEGSDQEKDEDDGTESEEEYSAPLPKPAPSS |  | approximately 5.8 |  |
|  | alpha-amidating enzyme from rat pituitaries: alpha-amidating enzyme partially purified from rat pituitaries (protein, UniProt P14925 36-976, looked up, partially purified) Peptidylglycine …: FKETTRSFSNECLGTIGPVTPLDASDFALDIRMPGVTPKESDTYFCMSMRLPVDEEAFVIDFKPRASMDTVHHMLLFGCNMPSSTGSYWFCDEGTCTDKANILYAWARNAPPTRLPKGVGFRVGGETGSKYFVLQVHYGDISAFRDNHKDCSGVSVHLTRVPQPLIAGMYLMMSVDTVIPPGEKVVNADISCQYKMYPMHVFAYRVHTHHLGKVVSGYRVRNGQWTLIGRQNPQLPQAFYPVEHPVDVTFGDILAARCVFTGEGRTEATHIGGTSSDEMCNLYIMYYMEAKYALSFMTCTKNVAPDMFRTIPAEANIPIPVKPDMVMMHGHHKEAENKEKSALMQQPKQGEEEVLEQGDFYSLLSKLLGEREDVHVHKYNPTEKTESGSDLVAEIANVVQKKDLGRSDAREGAEHEEWGNAILVRDRIHRFHQLESTLRPAESRAFSFQQPGEGPWEPEPSGDFHVEEELDWPGVYLLPGQVSGVALDSKNNLVIFHRGDHVWDGNSFDSKFVYQQRGLGPIEEDTILVIDPNNAEILQSSGKNLFYLPHGLSIDTDGNYWVTDVALHQVFKLDPHSKEGPLLILGRSMQPGSDQNHFCQPTDVAVEPSTGAVFVSDGYCNSRIVQFSPSGKFVTQWGEESSGSSPRPGQFSVPHSLALVPHLDQLCVADRENGRIQCFKTDTKEFVREIKHASFGRNVFAISYIPGFLFAVNGKPYFGDQEPVQGFVMNFSSGEIIDVFKPVRKHFDMPHDIVASEDGTVYIGDAHTNTVWKFTLTEKMEHRSVKKAGIEVQEIKEAEAVVEPKVENKPTSSELQKMQEKQKLSTEPGSGVSVVLITTLLVIPVLVLLAIVMFIRWKKSRAFGDHDRKLESSSGRVLGRFRGKGSGGLNLGNFFASRKGYSRKGFDRVSTEGSDQEKDEDDGTESEEEYSAPLPKPAPSS |  |  | enzyme activity outside pH 6.5-7.5 ([6]; pH levels below 6.5 or above 7.5): declined rapidly; pH optimum ([6]; pituitary, partially purified): 7 |
